This is an account of results in patent US20170306031A1 (NGM BIOPHARMACEUTICALS, published 2017).

Bounds are passed on as bounds.

The target of assay [1] is T1, human GFRAL expressed on cells (human, UniProt Q6UXV0 20-394).
T1 sequence: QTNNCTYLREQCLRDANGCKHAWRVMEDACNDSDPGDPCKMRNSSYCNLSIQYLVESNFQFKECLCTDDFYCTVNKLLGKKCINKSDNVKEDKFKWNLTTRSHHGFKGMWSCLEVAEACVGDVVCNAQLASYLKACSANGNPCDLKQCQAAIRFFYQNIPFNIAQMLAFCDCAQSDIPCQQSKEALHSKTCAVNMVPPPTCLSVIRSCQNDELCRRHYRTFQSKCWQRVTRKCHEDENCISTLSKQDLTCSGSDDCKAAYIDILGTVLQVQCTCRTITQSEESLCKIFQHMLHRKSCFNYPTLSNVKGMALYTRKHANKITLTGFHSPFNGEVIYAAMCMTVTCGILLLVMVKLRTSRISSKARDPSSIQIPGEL
Put plainly: cell-based or functional assay.

Assay [2] deals with T2, human GFRAL (analyte in Biacore assays) (human, UniProt Q6UXV0 19-351, limits assumed).
T2 construct: injected in solution over captured antibody; also called hGFRAL
T2 sequence: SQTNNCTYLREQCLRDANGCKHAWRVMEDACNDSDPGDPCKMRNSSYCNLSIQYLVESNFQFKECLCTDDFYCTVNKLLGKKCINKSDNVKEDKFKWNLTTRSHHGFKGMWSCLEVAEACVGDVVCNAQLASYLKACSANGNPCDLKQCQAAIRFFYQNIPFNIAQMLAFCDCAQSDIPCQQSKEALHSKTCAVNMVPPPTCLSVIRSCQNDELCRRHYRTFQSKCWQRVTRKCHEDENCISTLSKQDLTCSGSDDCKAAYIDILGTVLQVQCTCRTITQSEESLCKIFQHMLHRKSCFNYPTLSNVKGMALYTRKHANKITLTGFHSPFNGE
Put plainly: Biacore SPR, antibody captured, human GFRAL injected. A digest of the protocol: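 Purified humanized antibodies captured (~100 RU) on anti-mouse Fc immobilized by amine coupling on a CM5 chip, with a reference flow cell.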

A further assay has as its target T3, GFRα1 (UniProt P56159 25-429, limits assumed).
T3 construct: also called GNFR alpha 1; receptor GFRα1
T3 sequence (looked up): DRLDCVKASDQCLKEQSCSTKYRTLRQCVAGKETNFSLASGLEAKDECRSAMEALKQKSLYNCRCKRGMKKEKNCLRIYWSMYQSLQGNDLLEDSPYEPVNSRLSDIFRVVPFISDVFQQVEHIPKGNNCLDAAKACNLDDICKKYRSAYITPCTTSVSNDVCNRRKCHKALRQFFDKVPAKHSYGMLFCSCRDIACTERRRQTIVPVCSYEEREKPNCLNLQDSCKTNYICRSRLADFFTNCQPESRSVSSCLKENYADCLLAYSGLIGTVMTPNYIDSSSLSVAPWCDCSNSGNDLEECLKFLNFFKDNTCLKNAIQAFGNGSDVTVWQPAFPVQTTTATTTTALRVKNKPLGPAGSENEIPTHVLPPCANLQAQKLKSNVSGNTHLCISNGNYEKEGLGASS
Kind of assay: SPR, GFRα1 on chip surface (FIGS. 13A and 13B). In general terms: SPR reads the build-up and loss of mass on a sensor chip optically.

Assay [3] has as its target T1, human GFRAL expressed on cells. Kind of assay: cell-based or functional assay. The source holds these as a separate data set.

B1: humanized anti-GFRAL antibody HC-344e/LC-344h (antibody, IgG1, V domains shown)
VH: QVQLVQSGAEVKKPGSSVKVSCKASGYTFTDYGVIWVRQAPGQGLEWMGWINTYTGEPTYADDLKGRVTFTADESTSTAYMELSSLRSEDTAVYYCARRYGPEDIDYWGQGTTVTVSS
VL: DVVLTQSPLSLPVTLGQPASISCRASESVDNYGISFMSWFQQRPGQSPRLLIYAASHQGSGVPDRFSGSGSGTDFTLKISRVEAEDVGVYFCLQSKEVPWTFGGGTKVEIK
notes: humanized 3P10; also called h3P10
Turning to B1, the “IC50, ELK1-luciferase reporter (hGFRAL/hRET)” value in assay [1] was found to be 6.95 nM. Besides, in assay [2], the Kd – broadly, the equilibrium constant for the complex coming apart – was less than 0.01 nM. Besides, the binding result with GFRα1 is recorded as “no binding”. In addition, in assay [3], the “IC50, ERK phosphorylation in U2OS hGFRAL/hRET cells” value was 3.3 nM.
